Target: AflJ (A. parasiticus BN9), yeast two-hybrid fusion (A. parasiticus) (UniProt O42716)
Experiment: two-hybrid

Sequence of UniProt O42716 (O42716 whole entry, the tested form may be a part): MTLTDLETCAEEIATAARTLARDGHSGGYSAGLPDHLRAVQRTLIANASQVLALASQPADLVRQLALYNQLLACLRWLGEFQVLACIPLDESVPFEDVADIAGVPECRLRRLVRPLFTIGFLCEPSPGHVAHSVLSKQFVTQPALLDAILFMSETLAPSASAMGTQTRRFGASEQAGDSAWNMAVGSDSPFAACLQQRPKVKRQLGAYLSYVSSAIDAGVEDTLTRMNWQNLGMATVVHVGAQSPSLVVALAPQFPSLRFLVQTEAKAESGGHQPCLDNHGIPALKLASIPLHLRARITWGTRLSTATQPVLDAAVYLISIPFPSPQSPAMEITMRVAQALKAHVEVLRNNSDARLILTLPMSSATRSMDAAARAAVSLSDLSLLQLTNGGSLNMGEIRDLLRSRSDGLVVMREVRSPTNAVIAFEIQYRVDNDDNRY

## AflR, Gal4 activation domain fusion (pGADT7) (from UniProt P43651 1-444) (natural protein)
  colonies on QDO: 125 colonies

Source: article PMC3528264
